Test results reported in patent publication US20040248275A1, “Engineered bacterial aggregates” (priority 2003, published 2004).

Experiments:
Assay type in all cases: cell-based
[1] = tested on: E. brevis; test: Lectin aggregation of bacterial cells (microtitre wells, semi-quantitative score); parameters: key: Where the addition of lectins did not cause the aggregation of cells, a score of “0” was assigned; Lectins that caused cellular-aggregation to give small flocs in a turbid suspension were given a score of “+”; A score of “++” was given to lectin-cell aggregate mixes that resulted in large aggregates seen by eye in a turbid suspension; Lectins that caused cellular aggregation to give easily visible aggregates in a clear solution were given a score of “+++”; conditions: cells O.D. 0.5 at 650 nm
Description: (§1) Assay approach: Six lectins were chosen to discover their suitability for the aggregation of different species of bacteria. These were Concanavalin A, Lentil lectin, Pseudomonas aeruginosa lectin, peanut lectin, Limulus polyphemus lectin and wheat germ lectin.
(§2) The ability of the lectins to aggregate bacterial cells was studied by mixing cells at an O.D. of 0.5 at 650 nm with different lectins at different concentrations. The extent of aggregation was determined by a semi-quantitative approach. […] Lectins that caused cellular-aggregation to give small flocs in a turbid suspension were given a score of “+”. […] Lectins that caused cellular aggregation to give easily visible aggregates in a clear solution were given a score of “+++”.

[2] = tested on: E. coli C600 (K12); test: as above; parameters: key: Where the addition of lectins did not cause the aggregation of cells, a score of “0” was assigned; Lectins that caused cellular-aggregation to give small flocs in a turbid suspension were given a score of “+”; A score of “++” was given to lectin-cell aggregate mixes that resulted in large aggregates seen by eye in a turbid suspension; Lectins that caused cellular aggregation to give easily visible aggregates in a clear solution were given a score of “+++”; conditions: cells O.D. 0.5 at 650 nm
Description: as §1, §2

[3] = tested on: Pseudomonas sp. 2881; test: as above; parameters: key: Where the addition of lectins did not cause the aggregation of cells, a score of “0” was assigned; Lectins that caused cellular-aggregation to give small flocs in a turbid suspension were given a score of “+”; A score of “++” was given to lectin-cell aggregate mixes that resulted in large aggregates seen by eye in a turbid suspension; Lectins that caused cellular aggregation to give easily visible aggregates in a clear solution were given a score of “+++”; conditions: cells O.D. 0.5 at 650 nm
Description: as §1, §2

[4] = tested on: S. paucimobilis; test: as above; parameters: key: Where the addition of lectins did not cause the aggregation of cells, a score of “0” was assigned; Lectins that caused cellular-aggregation to give small flocs in a turbid suspension were given a score of “+”; A score of “++” was given to lectin-cell aggregate mixes that resulted in large aggregates seen by eye in a turbid suspension; Lectins that caused cellular aggregation to give easily visible aggregates in a clear solution were given a score of “+++”; conditions: cells O.D. 0.5 at 650 nm
Description: as §1, §2

[5] = tested on: Pseudomonas sp. Strain 2881; test: Titration of ConA against bacterial suspension, aggregate size measured; conditions: within 5.0% S.E.
Description: Aggregates of different size were constructed by titrating cona against suspensions of bacteria and observing the formation of aggregates. These were visible by eye as well as by optical microscope (FIG. 1).
Aggregate size was measured. A parabolic relationship between the ratio of ConA and bacterial density was observed (Table 3). […] This hypothesis reflects that established for antibody:antigen precipitation reactions.
Within an optimal range of […] and 0.6 mg/ml ConA, bacterial aggregates of 10 to >100 μm diameter could be reproducibly formed with a lectin excess that enabled further bacteria to be sequestered to the surface of the aggregate. The aggregates could be readily disassociated by the addition of approximately 50 mM maltose, glucose or sucrose to ConA, followed by 30s of gentle pipetting. This is ideal for the accurate enumeration of viable bacteria based upon CFU measurement on nutrient agar.

[6] = tested on: taxonomically distinct species of bacteria; test: Lectins tested for potential to construct bacterial aggregates
Excerpt: We have selected the lectin Concanavalin A (ConA) as the most preferred (Sigma, Poole, Dorset, UK). Other lectins tested for their potential in the present invention were Wheat Germ Lectin (WGA), lectin from Limulus polyphemus and Peanut Agglutinin (PNA). […] However, ConA was the only lectin that strongly reacted with, and aggregated, over 15 taxonomically distinct species of bacteria. ConA was subsequently deemed the most preferable for use. However, any lectin is suitable for the invention as long as the lectin is capable of agglutinating the desired species.
as §1, §2

| Molecule | extent of aggregation (score) ([1]; lectin 1 × 10^−1 mg/mL) | extent of aggregation (score) ([1]; lectin 1 × 10^−2 mg/mL) | extent of aggregation (score) ([1]; lectin 1 × 10^−3 mg/mL) | extent of aggregation (score) ([2]; lectin 1 × 10^−1 mg/mL) | extent of aggregation (score) ([2]; lectin 1 × 10^−2 mg/mL) | extent of aggregation (score) ([2]; lectin 1 × 10^−3 mg/mL) | extent of aggregation (score) ([3]; lectin 1 × 10^−1 mg/mL) | extent of aggregation (score) ([3]; lectin 1 × 10^−2 mg/mL) | extent of aggregation (score) ([3]; lectin 1 × 10^−3 mg/mL) | extent of aggregation (score) ([4]; lectin 1 × 10^−1 mg/mL) | extent of aggregation (score) ([4]; lectin 1 × 10^−2 mg/mL) | extent of aggregation (score) ([4]; lectin 1 × 10^−3 mg/mL) | also measured |
| --- | --- | --- | --- | --- | --- | --- | --- | --- | --- | --- | --- | --- | --- |
| Concanavalin A | + | + | 0 | +++ | +++ | + | +++ | ++ | ++ | + | ++ | 0 | Size of aggregate ([5]; Amount of ConA 0.001 mg/ml): No aggregation; Size of aggregate ([5]; Amount of ConA 0.01 mg/ml): 11.2 μm; Size of aggregate ([5]; Amount of ConA 0.05 mg/ml): 53.4 μm; Size of aggregate ([5]; Amount of ConA 0.1 mg/ml): 106.7 μm; Size of aggregate ([5]; Amount of ConA 0.2 mg/ml): 91.2 μm; Size of aggregate ([5]; Amount of ConA 0.4 mg/ml): 73.1 μm; Size of aggregate ([5]; Amount of ConA 0.6 mg/ml): 55.4 μm; Size of aggregate ([5]; Amount of ConA 0.8 mg/ml): No aggregation; Size of aggregate ([5]; Amount of ConA 1.0 mg/ml): No aggregation; taxonomically distinct species of bacteria strongly reacted with, and aggregated [6]: over 15 |
| Lentil lectin (protein, UniProt P02870 31-210; P02870 218-269, looked up) Lectin beta chain: TETTSFSITKFSPDQKNLIFQGDGYTTKGKLTLTKAVKSTVGRALYSTPIHIWDRDTGNVANFVTSFTFVIDAPSSYNVADEFTFFIAPVDTKPQTGGGYLGVFNSKEYDKTSQTVAVEFDTFYNAAWDPSNKERHIGIDVNSIKSVNTKSWNLQNGERANVVIAFNAATNVLTVTLTYP Lectin alpha chain: VTSYTLNEVVPLKDVVPEWVRIGFSATTGAEFAAHEVHSWSFHSELGGTSSS | + | 0 | 0 | +++ | ++ | + | +++ | ++ | + | + | 0 | 0 | – |
